Values quoted from earlier work as cited in patent publication US20240011040A1, “SALICYLIC ACID-INDUCIBLE GENE EXPRESSION COMPOSITIONS AND SYSTEMS FOR CELLS” (UNIVERSITY OF HOUSTON SYSTEM, priority 2020, published 2024).

Assays:
[1] = biological target: T1, Arabidopsis thaliana (At) NPR4 (Arabidopsis thaliana, UniProt Q5ICL9); conditions: AtNPR4, high-affinity sensor of SA
T1 sequence (Q5ICL9 1-574): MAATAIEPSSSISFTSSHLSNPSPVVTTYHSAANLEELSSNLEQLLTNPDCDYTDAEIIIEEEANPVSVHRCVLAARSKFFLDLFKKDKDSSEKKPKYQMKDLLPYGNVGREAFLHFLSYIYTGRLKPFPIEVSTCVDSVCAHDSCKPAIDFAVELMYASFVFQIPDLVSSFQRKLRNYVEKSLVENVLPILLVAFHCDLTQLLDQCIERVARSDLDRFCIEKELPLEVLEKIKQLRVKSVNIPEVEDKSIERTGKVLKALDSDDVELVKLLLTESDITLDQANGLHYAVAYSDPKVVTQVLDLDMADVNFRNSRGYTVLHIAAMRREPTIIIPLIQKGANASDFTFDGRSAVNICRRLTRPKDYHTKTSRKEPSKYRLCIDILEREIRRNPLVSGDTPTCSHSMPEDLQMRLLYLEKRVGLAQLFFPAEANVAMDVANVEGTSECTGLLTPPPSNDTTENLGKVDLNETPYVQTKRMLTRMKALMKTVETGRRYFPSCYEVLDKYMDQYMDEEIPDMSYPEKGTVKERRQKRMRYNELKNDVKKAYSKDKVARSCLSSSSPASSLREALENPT

Compound	half-life in blood	Kd [1]
EPO: glycoprotein cytokine secreted mainly by the kidney; stimulates red blood cell production	around 5 h	–
O=C(O)c1ccccc1O [SA, salicylic acid]	–	24 nM
